Experimental data: patent US20160333110A1 (CHIOME BIOSCIENCE, published 2016)

T1: recombinant protein of the hTROP-2 extracellular region (human, UniProt P09758 27-263)
T1 construct: produced with baculovirus, purified on Ni Sepharose; also called hTROP-2 EC; hTROP-2-EC-His; not shown: C-terminal myc-His tag from pcDNA4/myc-His A
T1 sequence: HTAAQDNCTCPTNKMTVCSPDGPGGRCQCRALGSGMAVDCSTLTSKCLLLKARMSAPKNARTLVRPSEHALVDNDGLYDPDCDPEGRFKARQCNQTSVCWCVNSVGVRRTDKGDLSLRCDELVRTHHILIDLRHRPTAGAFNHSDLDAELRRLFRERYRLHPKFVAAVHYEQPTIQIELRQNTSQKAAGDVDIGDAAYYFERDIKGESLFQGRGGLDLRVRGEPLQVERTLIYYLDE

T2: peptide No. 3 of Table 11 (SEQ ID NO: 211) (human)
T2 peptide: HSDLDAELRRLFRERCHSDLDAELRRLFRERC

T3: peptide No. 6 of Table 11 (SEQ ID NO: 214) (human)
T3 peptide: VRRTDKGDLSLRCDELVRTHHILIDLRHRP

T4: peptide No. 7 of Table 11 (SEQ ID NO: 215) (human)
T4 peptide: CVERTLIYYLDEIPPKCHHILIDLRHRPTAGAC

T5: peptide No. 10 of Table 11 (SEQ ID NO: 218) (human)
T5 peptide: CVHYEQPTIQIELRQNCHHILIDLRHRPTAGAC

T6: peptide No. 11 of Table 11 (SEQ ID NO: 219) (human)
T6 peptide: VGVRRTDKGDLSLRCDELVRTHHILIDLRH

T7: peptide No. 15 of Table 11 (SEQ ID NO: 223) (human)
T7 peptide: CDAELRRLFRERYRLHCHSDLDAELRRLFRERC

T8: peptide No. 19 of Table 11 (SEQ ID NO: 227) (human)
T8 peptide: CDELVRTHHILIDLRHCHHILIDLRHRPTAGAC

T9: peptide No. 21 of Table 11 (SEQ ID NO: 229) (human)
T9 peptide: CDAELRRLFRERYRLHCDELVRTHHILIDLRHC

T10: peptide No. 23 of Table 11 (SEQ ID NO: 231) (human)
T10 peptide: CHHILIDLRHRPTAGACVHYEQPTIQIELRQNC


Columns and labels:
[1] = target: T1, recombinant protein of the hTROP-2 …; experiment: antigen-coated ELISA, plate coated with 0.5 µg/ml hTROP-2 extracellular region
Method: Furthermore, antigen affinity was also examined by an ELISA method. ELISA was carried out using an ELISA plate which was coated with the recombinant protein of the hTROP-2 extracellular region as described in Example 3. Specifically, a 96-well plate (BD FALCON) was coated with a 50 μl/well recombinant protein of a hTROP-2 extracellular region that had been diluted with PBS to 0.5 μg/ml (at 4° C. overnight). Thereafter, the resultant was washed with a washing buffer (PBS containing 0.05% Tween 20), and a blocking buffer (PBS containing 2% skim milk and 0.05% Tween 20) was then added thereto (200 μl/well) to block it (at room temperature for 1 hour). The resultant was washed with a washing buffer. […] The obtained dilution samples were each added in an amount of 50 μl/well to the above-described ELISA plate (at room temperature for 2 hours). […] After the mixture had been washed with a washing buffer, a TMB (3,3′,5,5′-tetramethylbenzidine: SIGMA) substrate solution was added (50 μl/well) to the resultant to carry out a color reaction. Then, 1 M sulfuric acid (25 μl/well) was added to the reaction product to terminate the reaction. Using Microplate reader Model 550 (BioRad), an absorbance at 450 nm was measured with an absorbance at 655 nm used as a reference.

[2] = target: T1, recombinant protein of the hTROP-2 …; experiment: monovalent ELISA: antibody captured by anti-mouse IgG, hTROP-2 EC titrated in solution, detected with anti-His
Method: Thereafter, coating was carried out at 4° C. overnight. Thereafter, the reaction product was washed with a washing buffer (PBS containing 0.05% Tween 20), and a blocking buffer (PBS containing 2% skim milk and 0.05% Tween 20) was then added thereto (200 μL/well) to block it (at room temperature for 1 hour). The resultant was washed with a washing buffer. […] The mixture was left at rest at room temperature for 1 hour, and the reaction product was then washed with a washing buffer. The recombinant protein of the hTROP-2 extracellular region described in Example 3 (hTROP-2 EC) was diluted with an ELISA buffer to prepare samples with a concentration range from 5 μg/mL to a series of three-fold dilutions (10 samples). The thus obtained sample was added in each amount of 50 μL/well to the plate. The mixture was left at rest at room temperature for 1 hour, and the reaction product was then washed with a washing buffer. […] The obtained mixture was left at rest at room temperature for 1 hour, and it was then washed with a washing buffer. […] The obtained mixture was left at rest at room temperature for 1 hour, and it was then washed with a washing buffer. […] Using Microplate reader Model 550 (BioRad), an absorbance at 450 nm was measured with an absorbance at 655 nm used as a reference.

[3] = target: T2, peptide No. 3 of Table 11 (SEQ ID NO: …); experiment: PEPSCAN/CLIPS peptide ELISA, antibody 1 µg/mL
Method: (§1) 5034 types of the synthesized peptides were covalently bound to PEPSCAN cards (455 peptides/card), and the binding of the synthesized peptides to antibodies was then analyzed by the ELISA method. […] After washing, the resultant was allowed to react with a 1000-fold diluted peroxidase-secondary antibody complex at 25° C. for 1 hour. After washing, a substrate solution (a solution containing 2,2′-azino-di-3-ethylbenzthiazoline sulfonate (ABTS) and 2 μL of 3% hydrogen peroxide solution) was added to the reaction solution, followed by a chromogenic reaction for 1 hour. The binding activity of the antibodies was quantified by photographing with a CCD camera and then performing an image analysis.

[4] = target: T3, peptide No. 6 of Table 11 (SEQ ID NO: …); experiment: PEPSCAN/CLIPS peptide ELISA, antibody 1 µg/mL
Method: as §1

[5] = target: T4, peptide No. 7 of Table 11 (SEQ ID NO: …); experiment: PEPSCAN/CLIPS peptide ELISA, antibody 1 µg/mL
Method: as §1

[6] = target: T5, peptide No. 10 of Table 11 (SEQ ID NO: …); experiment: PEPSCAN/CLIPS peptide ELISA, antibody 1 µg/mL
Method: as §1

[7] = target: T6, peptide No. 11 of Table 11 (SEQ ID NO: …); experiment: PEPSCAN/CLIPS peptide ELISA, antibody 1 µg/mL
Method: as §1

[8] = target: T7, peptide No. 15 of Table 11 (SEQ ID NO: …); experiment: PEPSCAN/CLIPS peptide ELISA, antibody 1 µg/mL
Method: as §1

[9] = target: T8, peptide No. 19 of Table 11 (SEQ ID NO: …); experiment: PEPSCAN/CLIPS peptide ELISA, antibody 1 µg/mL
Method: as §1

[10] = target: T9, peptide No. 21 of Table 11 (SEQ ID NO: …); experiment: PEPSCAN/CLIPS peptide ELISA, antibody 1 µg/mL
Method: as §1

[11] = target: T10, peptide No. 23 of Table 11 (SEQ ID NO: …); experiment: PEPSCAN/CLIPS peptide ELISA, antibody 1 µg/mL
Method: as §1

EC50 [1] | EC50 [2] | binding of 16-16 [3] | binding of 16-16 [4] | binding of 16-16 [5] | binding of 16-16 [6] | binding of 16-16 [7] | binding of 16-16 [8] | binding of 16-16 [9] | binding of 16-16 [10] | binding of 16-16 [11] | Binder
0.027 µg/mL | 0.007 µg/mL | – | – | – | – | – | – | – | – | – | anti-hTROP-2 monoclonal antibody clone K5-70 (antibody, mouse IgG2a, V domains shown, mouse IgG2a, hybridoma FERM BP-11251; also called K5-70 antibody; mouse K5-70 antibody) VH: QVQLQQPGAELVRPGASVKLSCKASGYTFTIYWINWVKQRPGQGLEWIGNIYPSDSYTNYNQKFKDKATLTVDKSSSTAYMQLSSPTSEDSAVYYCTRTSMADYWGQGTTLTVSS VL: DILLTQSPAILSVSPGERVSFSCRASQSIGTSIHWYQQRTNGSPRLLIKYASESISGIPSRFSGSGSGTDFTLSINSVESEDIADYYCQQSNSWPFTFGSGTKLEIK
0.03 µg/mL | – | 714 | 670 | 626 | 602 | 601 | 566 | 534 | 527 | 524 | anti-hTROP-2 monoclonal antibody clone T6-16 (antibody, mouse IgG2a, V domains shown, mouse IgG2a, hybridoma FERM BP-11346; also called T6-16 antibody) VH: EVQLQQSGPELVKPGASVKISCKASGYTFTDYNMHWVKQSHGKNLEWIGYIYPYNGGTGYNQRFKSRATMTVDKSSSTAYMELRSLTSDDSAVYYCAREDYGSSPSYAMDYWGQGTSVIVSS VL: DVVMTQTPLSLPVSLGDQASISCRSSQSLVHGNGNTYLHWYLQKPGQSPKLLIYKVSNRFSGVPDRFSGSGSGTDFTLKISRVEAEDLGVYFCSQTTHVPTFGSGTKLEIK
